Data on ten proteins can be found in publication PMC4564947 (Nature structural & molecular biology, 2015).

To fix the notation:
B1: CtIP-cNTD, human CtIP residues 52-145 (domain or fragment)
chain: DAQRLEEFFTKNQQLREQQKVLHETIKVLEDRLRAGLCDRCAVTEEHMRKKQQEFENIRQQNLKLITELMNERNTLQEENKKLSEQLQQKIEND
B2: CtIP-cNTD-DM, C89A C92A double mutant of CtIP residues 52-145 (domain or fragment)
chain: B1 chain with C38A, C41A
B3: Δ20-27 CtIP-NTD, human CtIP residues 18-145 with residues 20-27 deleted (domain or fragment)
chain: SDKECHDREVQGLQVKVTKLKQERILDAQRLEEFFTKNQQLREQQKVLHETIKVLEDRLRAGLCDRCAVTEEHMRKKQQEFENIRQQNLKLITELMNERNTLQEENKKLSEQLQQKIEND
B4: CtIP N-terminal domain (CtIP-NTD), human CtIP residues 18-145 (domain or fragment)
chain: SDFKDLWTKLKECHDREVQGLQVKVTKLKQERILDAQRLEEFFTKNQQLREQQKVLHETIKVLEDRLRAGLCDRCAVTEEHMRKKQQEFENIRQQNLKLITELMNERNTLQEENKKLSEQLQQKIEND
B5: L27E CtIP-NTD, human CtIP residues 18-145 with L27E (domain or fragment)
chain: B4 chain with L10E
B6: F20E CtIP-NTD, human CtIP residues 18-145 with F20E (domain or fragment)
chain: B4 chain with F3E
B7: CtIP-NTD-DM, C89A C92A double mutant of CtIP residues 18-145 (domain or fragment)
chain: B4 chain with C72A, C75A
B8: FLAG-tagged full-length wild-type CtIP purified from HEK-293T cells (natural protein)
chain: MNISGSSCGSPNSADTSSDFKDLWTKLKECHDREVQGLQVKVTKLKQERILDAQRLEEFFTKNQQLREQQKVLHETIKVLEDRLRAGLCDRCAVTEEHMRKKQQEFENIRQQNLKLITELMNERNTLQEENKKLSEQLQQKIENDQQHQAAELECEEDVIPDSPITAFSFSGVNRLRRKENPHVRYIEQTHTKLEHSVCANEMRKVSKSSTHPQHNPNENEILVADTYDQSQSPMAKAHGTSSYTPDKSSFNLATVVAETLGLGVQEESETQGPMSPLGDELYHCLEGNHKKQPFEESTRNTEDSLRFSDSTSKTPPQEELPTRVSSPVFGATSSIKSGLDLNTSLSPSLLQPGKKKHLKTLPFSNTCISRLEKTRSKSEDSALFTHHSLGSEVNKIIIQSSNKQILINKNISESLGEQNRTEYGKDSNTDKHLEPLKSLGGRTSKRKKTEEESEHEVSCPQASFDKENAFPFPMDNQFSMNGDCVMDKPLDLSDRFSAIQRQEKSQGSETSKNKFRQVTLYEALKTIPKGFSSSRKASDGNCTLPKDSPGEPCSQECIILQPLNKCSPDNKPSLQIKEENAVFKIPLRPRESLETENVLDDIKSAGSHEPIKIQTRSDHGGCELASVLQLNPCRTGKIKSLQNNQDVSFENIQWSIDPGADLSQYKMDVTVIDTKDGSQSKLGGETVDMDCTLVSETVLLKMKKQEQKGEKSSNEERKMNDSLEDMFDRTTHEEYESCLADSFSQAADEEEELSTATKKLHTHGDKQDKVKQKAFVEPYFKGDERETSLQNFPHIEVVRKKEERRKLLGHTCKECEIYYADMPAEEREKKLASCSRHRFRYIPPNTPENFWEVGFPSTQTCMERGYIKEDLDPCPRPKRRQPYNAIFSPKGKEQKT

Substitutions are numbered along the chain they refer to. Names may count otherwise. “And” between values parts separate entries of the source, which are not always exact repeats. Equal values may be shown once.

One data set deals with the molecule itself. Kind of data set: SEC-MALS.
In the case of B1, the stoichiometry N (in general, a count of units in the complex or per binding partner) amounted to 2.
For the protein B2, the “stoichiometry N” value was determined as 2.
On the same count and under the same terms, for SDFKDLWTKLKECHDREVQGLQVKVTKLKQERILD (domain or fragment) [CtIP-nNTD, tetramerization domain of human CtIP, residues 18-52] the value was 4; for SDFKDLWTKLKECHDREVQGLQVKVTKLKQERILD (domain or fragment) [CtIP-nNTD (residues 18-52) fused to a maltose-binding protein (MBP) tag], 4.
Regarding B3, the “stoichiometry N” value amounted to 2.
Consider B4, for which the “stoichiometry N” value is 4.
Take B5: the “stoichiometry N” value turned out to be 2.
Consider B6, for which the “stoichiometry N” value was 2 and 4.
Regarding B7, the “stoichiometry N” value amounted to 4.

Another data set concerns the molecule itself. In words: SEC.
Consider B8, for which the binding result is reported as “binds”.
